From publication PMC4644235 (Cell, 2015)

T1: Sac3(222-572) (S. cerevisiae, UniProt P46674 222-572)
T1 sequence: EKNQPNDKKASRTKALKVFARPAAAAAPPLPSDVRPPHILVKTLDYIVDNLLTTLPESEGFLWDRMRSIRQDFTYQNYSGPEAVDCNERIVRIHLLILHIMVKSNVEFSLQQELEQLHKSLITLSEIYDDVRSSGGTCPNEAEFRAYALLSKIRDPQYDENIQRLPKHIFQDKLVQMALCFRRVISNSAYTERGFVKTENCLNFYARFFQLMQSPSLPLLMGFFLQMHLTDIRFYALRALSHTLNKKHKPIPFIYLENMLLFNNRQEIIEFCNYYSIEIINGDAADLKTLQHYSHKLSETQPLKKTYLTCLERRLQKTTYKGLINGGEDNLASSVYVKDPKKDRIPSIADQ

B1: Thp1(170-455) (domain or fragment)
chain: GKQRILLYLVNKLNNIYFRIESPQLCSNIFKNFQPKSMLAHFNEYQLDQQIEYRYLLGRYYLLNSQVHNAFVQFNEAFQSLLNLPLTNQAITRNGTRILNYMIPTGLILGKMVKWGPLRPFLSQETIDNWSVLYKHVRYGNIQGVSLWLRQNERHLCARQLLIVLLEKLPMVTYRNLIKTVIKSWTTEWGQNKLPYSLIERVLQLSIGPTFEDPGAQEITIYNGIHSPKNVENVLVTLINLGLLRANCFPQLQLCVVKKTTMIQEIVPPVNERITKMFPAHSHVLW
B2: Sem1 (natural protein)
chain: MSTDVAAAQAQSKIDLTKKKNEEINKKSLEEDDEFEDFPIDTWANGETIKSNAVTQTNIWEENWDDVEVDDDFTNELKAELDRYKRENQ

Assays:
Sac3(222-572) = target: T1, Sac3(222-572); experiment: crystal structure
Thp1(170-455) = target: B1; experiment: crystal structure

Binder	binding result (Sac3(222-572))	binding result (Thp1(170-455))
B1	binds	–
B2	–	binds
